Experimental data published in patent publication US20220339270A1.

What was measured:
[1] = molecular target: ePHF tau (tau in the form of paired helical filaments, immobilized on plate) (UniProt P10636); experiment: ePHF tau ELISA; 37.0 ng/mL; rep 1
[2] = molecular target: ePHF tau (tau in the form of paired helical filaments, immobilized on plate) (UniProt P10636); experiment: ePHF tau ELISA; 1000.0 ng/mL; rep 1
[3] = molecular target: ePHF tau (tau in the form of paired helical filaments, immobilized on plate) (UniProt P10636); experiment: ePHF tau ELISA; 333.3 ng/mL; rep 1
[4] = molecular target: ePHF tau (tau in the form of paired helical filaments, immobilized on plate) (UniProt P10636); experiment: ePHF tau ELISA; 0.5 ng/mL; rep 2
[5] = molecular target: ePHF tau (tau in the form of paired helical filaments, immobilized on plate) (UniProt P10636); experiment: ePHF tau ELISA; 4.1 ng/mL; rep 1
[6] = molecular target: ePHF tau (tau in the form of paired helical filaments, immobilized on plate) (UniProt P10636); experiment: ePHF tau ELISA; 0.5 ng/mL; rep 1
[7] = molecular target: ePHF tau (tau in the form of paired helical filaments, immobilized on plate) (UniProt P10636); experiment: ePHF tau ELISA; 1000.0 ng/mL; rep 2
[8] = molecular target: ePHF tau (tau in the form of paired helical filaments, immobilized on plate) (UniProt P10636); experiment: ePHF tau ELISA; 12.3 ng/mL; rep 1
[9] = molecular target: ePHF tau (tau in the form of paired helical filaments, immobilized on plate) (UniProt P10636); experiment: ePHF tau ELISA; 12.3 ng/mL; rep 2
[10] = molecular target: ePHF tau (tau in the form of paired helical filaments, immobilized on plate) (UniProt P10636); experiment: ePHF tau ELISA; 333.3 ng/mL; rep 2
[11] = molecular target: ePHF tau (tau in the form of paired helical filaments, immobilized on plate) (UniProt P10636); experiment: ePHF tau ELISA; […]; rep 2
[12] = molecular target: ePHF tau (tau in the form of paired helical filaments, immobilized on plate) (UniProt P10636); experiment: ePHF tau ELISA; 4.1 ng/mL; rep 2
[13] = molecular target: ePHF tau (tau in the form of paired helical filaments, immobilized on plate) (UniProt P10636); experiment: ePHF tau ELISA; 111.1 ng/mL; rep 1
[14] = molecular target: ePHF tau (tau in the form of paired helical filaments, immobilized on plate) (UniProt P10636); experiment: ePHF tau ELISA; […]; rep 1
[15] = molecular target: ePHF tau (tau in the form of paired helical filaments, immobilized on plate) (UniProt P10636); experiment: ePHF tau ELISA; 37.0 ng/mL; rep 2
[16] = molecular target: ePHF tau (tau in the form of paired helical filaments, immobilized on plate) (UniProt P10636); experiment: ePHF tau ELISA; 111.1 ng/mL; rep 2
[17] = molecular target: extracellular tau in the form of paired helical filaments (ePHF tau) (UniProt P10636); experiment: anti-eTau ELISA of ExpiCHO supernatant, concentration of tau-binding antibody
Chain of extracellular tau in the form of paired helical filaments (ePHF tau) (P10636 other isoform, or with tags, fused parts or gaps limits assumed): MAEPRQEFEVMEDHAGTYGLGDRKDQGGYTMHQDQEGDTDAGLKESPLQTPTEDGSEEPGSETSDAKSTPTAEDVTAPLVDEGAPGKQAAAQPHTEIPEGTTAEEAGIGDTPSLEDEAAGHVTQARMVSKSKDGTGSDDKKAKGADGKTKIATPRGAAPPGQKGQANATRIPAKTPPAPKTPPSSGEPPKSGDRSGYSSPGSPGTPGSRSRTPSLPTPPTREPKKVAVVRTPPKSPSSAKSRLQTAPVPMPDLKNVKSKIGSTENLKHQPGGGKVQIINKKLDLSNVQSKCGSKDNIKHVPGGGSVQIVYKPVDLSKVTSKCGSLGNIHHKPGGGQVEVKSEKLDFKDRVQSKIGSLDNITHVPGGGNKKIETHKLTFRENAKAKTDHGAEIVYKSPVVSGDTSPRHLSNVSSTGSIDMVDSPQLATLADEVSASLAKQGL

[18] = molecular target: wild-type tau (Tau441) (human) (UniProt P10636); experiment: ELISA, Tau441 on plate; antibody at 12.3 ng/mL
Chain of wild-type tau (Tau441) (human) (P10636 other isoform, or with tags, fused parts or gaps limits assumed): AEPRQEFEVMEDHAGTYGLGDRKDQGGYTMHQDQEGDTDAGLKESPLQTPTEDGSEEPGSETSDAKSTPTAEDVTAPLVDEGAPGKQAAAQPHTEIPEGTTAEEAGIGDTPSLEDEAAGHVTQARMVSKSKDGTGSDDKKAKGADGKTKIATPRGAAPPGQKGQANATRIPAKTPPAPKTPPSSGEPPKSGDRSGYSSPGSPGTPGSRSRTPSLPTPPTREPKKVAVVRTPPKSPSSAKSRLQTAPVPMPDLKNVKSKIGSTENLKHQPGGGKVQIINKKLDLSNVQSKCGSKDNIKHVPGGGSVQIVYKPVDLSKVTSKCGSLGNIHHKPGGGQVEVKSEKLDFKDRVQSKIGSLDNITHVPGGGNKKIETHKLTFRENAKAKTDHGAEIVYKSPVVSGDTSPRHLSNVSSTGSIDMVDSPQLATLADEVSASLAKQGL

[19] = molecular target: wild-type tau (Tau441) (human) (UniProt P10636); experiment: ELISA, Tau441 on plate; antibody at 4.1 ng/mL
[20] = molecular target: wild-type tau (Tau441) (human) (UniProt P10636); experiment: ELISA, Tau441 on plate; antibody at 37.0 ng/mL
[21] = molecular target: wild-type tau (Tau441) (human) (UniProt P10636); experiment: ELISA, Tau441 on plate; antibody at 111.1 ng/mL
[22] = molecular target: wild-type tau (Tau441) (human) (UniProt P10636); experiment: ELISA, Tau441 on plate; antibody at 1000.0 ng/mL
[23] = molecular target: wild-type tau (Tau441) (human) (UniProt P10636); experiment: ELISA, Tau441 on plate; antibody at […]
[24] = molecular target: wild-type tau (Tau441) (human) (UniProt P10636); experiment: ELISA, Tau441 on plate; antibody at 333.3 ng/mL
[25] = molecular target: wild-type tau (Tau441) (human) (UniProt P10636); experiment: ELISA, Tau441 on plate; antibody at 0.0 ng/mL [sic]

Substance	OD450 [1]	OD450 [2]	OD450 [3]	OD450 [4]	OD450 [5]	OD450 [6]	OD450 [7]	OD450 [8]	OD450 [9]	OD450 [10]	OD450 [11]	OD450 [12]	OD450 [13]	OD450 [14]	OD450 [15]	OD450 [16]	OD450 [18] [OD450]	OD450 [19] [OD450]	OD450 [20] [OD450]	OD450 [21] [OD450]	further results
Tau5 (BioLegend monoclonal murine anti-tau, 210-230; cat #806401) (antibody)	2.6	3.2	3.2	0.1	0.8	0.1	3.2	1.7	2.1	3.2	0.4	0.9	3.2	0.4	2.9	3.2					
PHF1 antibody expressed from viral genome construct TAU_ITR85 (PHF-1 HF.F2AL) (antibody; other documents disagree on this pair)																					anti-eTau ELISA antibody concentration [17]: 18.8 ng/mL
PHF-13 (BioLegend monoclonal murine anti-tau phospho Ser396; cat #829001) (antibody)	0.3	1.9	1.2	0	0.1	0	2	0.1	0.1	1.2	0	0	0.6	0	0.3	0.7					
Tau12 (anti-tau, 6-18; BioLegend cat #806501) (antibody)																	2	0.9	3.1	3.3	OD450 [22]: 3.3 OD450; OD450 [23]: 0.4 OD450; OD450 [24]: 3.3 OD450; OD450 [25]: 0 OD450
PHF1 antibody expressed from viral genome construct TAU_ITR86 (PHF-1 LF2AH) (antibody; other documents disagree on this pair)																					anti-eTau ELISA antibody concentration [17]: 1530 ng/mL
Tau12 (BioLegend monoclonal murine anti-tau, 6-18; cat #806501) (antibody)	3.2	3.2	3.2	0.4	2.2	0.4	3.1	3.2	3.2	3.1	1	2.4	3.2	1	3.2	3.2					
Tau5 (anti-tau, 210-230; BioLegend cat #806401) (antibody)																	1.2	0.6	2.6	3.3	OD450 [22]: 3.3 OD450; OD450 [23]: 0.2 OD450; OD450 [24]: 3.3 OD450; OD450 [25]: 0.1 OD450
PHF-6 (anti-tau phospho Th231; BioLegend cat #828901) (antibody)																	0	0	0	0	OD450 [22]: 0.1 OD450; OD450 [23]: 0.1 OD450; OD450 [24]: 0 OD450; OD450 [25]: 0 OD450
Tau46 (anti-tau, 404-421; BioLegend cat #806601) (antibody)																	1	0.4	2	3	OD450 [22]: 3.2 OD450; OD450 [23]: 0.2 OD450; OD450 [24]: 3.2 OD450; OD450 [25]: 0.1 OD450
43D (anti-tau, 1-100; BioLegend cat #816601) (antibody)																	2	0.9	3	3.2	OD450 [22]: 3.2 OD450; OD450 [23]: 0.4 OD450; OD450 [24]: 3.3 OD450; OD450 [25]: 0 OD450
2G9.F10 (anti-tau, 157-168; BioLegend cat #824601) (antibody)																	0.2	0.1	0.5	0.9	OD450 [22]: 2.2 OD450; OD450 [23]: 0.1 OD450; OD450 [24]: 1.6 OD450; OD450 [25]: 0 OD450
PHF1 antibody expressed from viral genome construct TAU_ITR70 (PHF-1 LF2AH) (antibody; other documents disagree on this pair)																					anti-eTau ELISA antibody concentration [17]: 4280 ng/mL
2G9.F10 (BioLegend monoclonal murine anti-tau, 157-168; cat #824601) (antibody)	1.6	3.1	2.9	0	0.3	0	3.1	0.7	0.9	3	0.1	0.3	2.4	0.1	2	2.8					
PHF-13 (anti-tau phospho Ser396; BioLegend cat #829001) (antibody)																	0.1	0	0	0.1	OD450 [22]: 0.1 OD450; OD450 [23]: 0 OD450; OD450 [24]: 0.1 OD450; OD450 [25]: 0 OD450
43D (BioLegend monoclonal murine anti-tau, 1-100; cat #816601) (antibody)	3.2	3.2	3.2	0.3	1.7	0.3	3.1	3	3.1	3.1	0.8	1.9	3.2	0.7	3.2	3.2					
Tau-13 (anti-tau, 20-35; BioLegend cat #835201) (antibody)																	1.2	0.5	2.3	3.1	OD450 [22]: 3.2 OD450; OD450 [23]: 0.2 OD450; OD450 [24]: 3.2 OD450; OD450 [25]: 0 OD450
Tau46 (BioLegend monoclonal murine anti-tau, 404-421; cat #806601) (antibody)	0.9	2.8	2.3	0	0.2	0	2.9	0.4	0.4	2.6	0	0.1	1.7	0.1	1	2					
PHF-6 (BioLegend monoclonal murine anti-tau phospho Th231; cat #828901) (antibody)	1.9	3.2	3	0	0.4	0.1	3.1	1.1	1.3	3.1	0.2	0.5	2.7	0.2	2.3	2.9					
Tau-13 (BioLegend monoclonal murine anti-tau, 20-35; cat #835201) (antibody)	3.2	3.2	3.2	0.2	1.4	0.2	3.2	2.8	3.1	3.2	0.7	1.8	3.2	0.6	3.2	3.2					
